The source of these data is US20170190751A1 (published 2017).

Residue numbers refer to the chain shown, from its start.

This assay addresses mouse megalin (mouse, UniProt A2ARV4 26-4660). Kind of assay: cell-based or functional assay.

mouse megalin, sequence (A2ARV4 26-4660 limits assumed): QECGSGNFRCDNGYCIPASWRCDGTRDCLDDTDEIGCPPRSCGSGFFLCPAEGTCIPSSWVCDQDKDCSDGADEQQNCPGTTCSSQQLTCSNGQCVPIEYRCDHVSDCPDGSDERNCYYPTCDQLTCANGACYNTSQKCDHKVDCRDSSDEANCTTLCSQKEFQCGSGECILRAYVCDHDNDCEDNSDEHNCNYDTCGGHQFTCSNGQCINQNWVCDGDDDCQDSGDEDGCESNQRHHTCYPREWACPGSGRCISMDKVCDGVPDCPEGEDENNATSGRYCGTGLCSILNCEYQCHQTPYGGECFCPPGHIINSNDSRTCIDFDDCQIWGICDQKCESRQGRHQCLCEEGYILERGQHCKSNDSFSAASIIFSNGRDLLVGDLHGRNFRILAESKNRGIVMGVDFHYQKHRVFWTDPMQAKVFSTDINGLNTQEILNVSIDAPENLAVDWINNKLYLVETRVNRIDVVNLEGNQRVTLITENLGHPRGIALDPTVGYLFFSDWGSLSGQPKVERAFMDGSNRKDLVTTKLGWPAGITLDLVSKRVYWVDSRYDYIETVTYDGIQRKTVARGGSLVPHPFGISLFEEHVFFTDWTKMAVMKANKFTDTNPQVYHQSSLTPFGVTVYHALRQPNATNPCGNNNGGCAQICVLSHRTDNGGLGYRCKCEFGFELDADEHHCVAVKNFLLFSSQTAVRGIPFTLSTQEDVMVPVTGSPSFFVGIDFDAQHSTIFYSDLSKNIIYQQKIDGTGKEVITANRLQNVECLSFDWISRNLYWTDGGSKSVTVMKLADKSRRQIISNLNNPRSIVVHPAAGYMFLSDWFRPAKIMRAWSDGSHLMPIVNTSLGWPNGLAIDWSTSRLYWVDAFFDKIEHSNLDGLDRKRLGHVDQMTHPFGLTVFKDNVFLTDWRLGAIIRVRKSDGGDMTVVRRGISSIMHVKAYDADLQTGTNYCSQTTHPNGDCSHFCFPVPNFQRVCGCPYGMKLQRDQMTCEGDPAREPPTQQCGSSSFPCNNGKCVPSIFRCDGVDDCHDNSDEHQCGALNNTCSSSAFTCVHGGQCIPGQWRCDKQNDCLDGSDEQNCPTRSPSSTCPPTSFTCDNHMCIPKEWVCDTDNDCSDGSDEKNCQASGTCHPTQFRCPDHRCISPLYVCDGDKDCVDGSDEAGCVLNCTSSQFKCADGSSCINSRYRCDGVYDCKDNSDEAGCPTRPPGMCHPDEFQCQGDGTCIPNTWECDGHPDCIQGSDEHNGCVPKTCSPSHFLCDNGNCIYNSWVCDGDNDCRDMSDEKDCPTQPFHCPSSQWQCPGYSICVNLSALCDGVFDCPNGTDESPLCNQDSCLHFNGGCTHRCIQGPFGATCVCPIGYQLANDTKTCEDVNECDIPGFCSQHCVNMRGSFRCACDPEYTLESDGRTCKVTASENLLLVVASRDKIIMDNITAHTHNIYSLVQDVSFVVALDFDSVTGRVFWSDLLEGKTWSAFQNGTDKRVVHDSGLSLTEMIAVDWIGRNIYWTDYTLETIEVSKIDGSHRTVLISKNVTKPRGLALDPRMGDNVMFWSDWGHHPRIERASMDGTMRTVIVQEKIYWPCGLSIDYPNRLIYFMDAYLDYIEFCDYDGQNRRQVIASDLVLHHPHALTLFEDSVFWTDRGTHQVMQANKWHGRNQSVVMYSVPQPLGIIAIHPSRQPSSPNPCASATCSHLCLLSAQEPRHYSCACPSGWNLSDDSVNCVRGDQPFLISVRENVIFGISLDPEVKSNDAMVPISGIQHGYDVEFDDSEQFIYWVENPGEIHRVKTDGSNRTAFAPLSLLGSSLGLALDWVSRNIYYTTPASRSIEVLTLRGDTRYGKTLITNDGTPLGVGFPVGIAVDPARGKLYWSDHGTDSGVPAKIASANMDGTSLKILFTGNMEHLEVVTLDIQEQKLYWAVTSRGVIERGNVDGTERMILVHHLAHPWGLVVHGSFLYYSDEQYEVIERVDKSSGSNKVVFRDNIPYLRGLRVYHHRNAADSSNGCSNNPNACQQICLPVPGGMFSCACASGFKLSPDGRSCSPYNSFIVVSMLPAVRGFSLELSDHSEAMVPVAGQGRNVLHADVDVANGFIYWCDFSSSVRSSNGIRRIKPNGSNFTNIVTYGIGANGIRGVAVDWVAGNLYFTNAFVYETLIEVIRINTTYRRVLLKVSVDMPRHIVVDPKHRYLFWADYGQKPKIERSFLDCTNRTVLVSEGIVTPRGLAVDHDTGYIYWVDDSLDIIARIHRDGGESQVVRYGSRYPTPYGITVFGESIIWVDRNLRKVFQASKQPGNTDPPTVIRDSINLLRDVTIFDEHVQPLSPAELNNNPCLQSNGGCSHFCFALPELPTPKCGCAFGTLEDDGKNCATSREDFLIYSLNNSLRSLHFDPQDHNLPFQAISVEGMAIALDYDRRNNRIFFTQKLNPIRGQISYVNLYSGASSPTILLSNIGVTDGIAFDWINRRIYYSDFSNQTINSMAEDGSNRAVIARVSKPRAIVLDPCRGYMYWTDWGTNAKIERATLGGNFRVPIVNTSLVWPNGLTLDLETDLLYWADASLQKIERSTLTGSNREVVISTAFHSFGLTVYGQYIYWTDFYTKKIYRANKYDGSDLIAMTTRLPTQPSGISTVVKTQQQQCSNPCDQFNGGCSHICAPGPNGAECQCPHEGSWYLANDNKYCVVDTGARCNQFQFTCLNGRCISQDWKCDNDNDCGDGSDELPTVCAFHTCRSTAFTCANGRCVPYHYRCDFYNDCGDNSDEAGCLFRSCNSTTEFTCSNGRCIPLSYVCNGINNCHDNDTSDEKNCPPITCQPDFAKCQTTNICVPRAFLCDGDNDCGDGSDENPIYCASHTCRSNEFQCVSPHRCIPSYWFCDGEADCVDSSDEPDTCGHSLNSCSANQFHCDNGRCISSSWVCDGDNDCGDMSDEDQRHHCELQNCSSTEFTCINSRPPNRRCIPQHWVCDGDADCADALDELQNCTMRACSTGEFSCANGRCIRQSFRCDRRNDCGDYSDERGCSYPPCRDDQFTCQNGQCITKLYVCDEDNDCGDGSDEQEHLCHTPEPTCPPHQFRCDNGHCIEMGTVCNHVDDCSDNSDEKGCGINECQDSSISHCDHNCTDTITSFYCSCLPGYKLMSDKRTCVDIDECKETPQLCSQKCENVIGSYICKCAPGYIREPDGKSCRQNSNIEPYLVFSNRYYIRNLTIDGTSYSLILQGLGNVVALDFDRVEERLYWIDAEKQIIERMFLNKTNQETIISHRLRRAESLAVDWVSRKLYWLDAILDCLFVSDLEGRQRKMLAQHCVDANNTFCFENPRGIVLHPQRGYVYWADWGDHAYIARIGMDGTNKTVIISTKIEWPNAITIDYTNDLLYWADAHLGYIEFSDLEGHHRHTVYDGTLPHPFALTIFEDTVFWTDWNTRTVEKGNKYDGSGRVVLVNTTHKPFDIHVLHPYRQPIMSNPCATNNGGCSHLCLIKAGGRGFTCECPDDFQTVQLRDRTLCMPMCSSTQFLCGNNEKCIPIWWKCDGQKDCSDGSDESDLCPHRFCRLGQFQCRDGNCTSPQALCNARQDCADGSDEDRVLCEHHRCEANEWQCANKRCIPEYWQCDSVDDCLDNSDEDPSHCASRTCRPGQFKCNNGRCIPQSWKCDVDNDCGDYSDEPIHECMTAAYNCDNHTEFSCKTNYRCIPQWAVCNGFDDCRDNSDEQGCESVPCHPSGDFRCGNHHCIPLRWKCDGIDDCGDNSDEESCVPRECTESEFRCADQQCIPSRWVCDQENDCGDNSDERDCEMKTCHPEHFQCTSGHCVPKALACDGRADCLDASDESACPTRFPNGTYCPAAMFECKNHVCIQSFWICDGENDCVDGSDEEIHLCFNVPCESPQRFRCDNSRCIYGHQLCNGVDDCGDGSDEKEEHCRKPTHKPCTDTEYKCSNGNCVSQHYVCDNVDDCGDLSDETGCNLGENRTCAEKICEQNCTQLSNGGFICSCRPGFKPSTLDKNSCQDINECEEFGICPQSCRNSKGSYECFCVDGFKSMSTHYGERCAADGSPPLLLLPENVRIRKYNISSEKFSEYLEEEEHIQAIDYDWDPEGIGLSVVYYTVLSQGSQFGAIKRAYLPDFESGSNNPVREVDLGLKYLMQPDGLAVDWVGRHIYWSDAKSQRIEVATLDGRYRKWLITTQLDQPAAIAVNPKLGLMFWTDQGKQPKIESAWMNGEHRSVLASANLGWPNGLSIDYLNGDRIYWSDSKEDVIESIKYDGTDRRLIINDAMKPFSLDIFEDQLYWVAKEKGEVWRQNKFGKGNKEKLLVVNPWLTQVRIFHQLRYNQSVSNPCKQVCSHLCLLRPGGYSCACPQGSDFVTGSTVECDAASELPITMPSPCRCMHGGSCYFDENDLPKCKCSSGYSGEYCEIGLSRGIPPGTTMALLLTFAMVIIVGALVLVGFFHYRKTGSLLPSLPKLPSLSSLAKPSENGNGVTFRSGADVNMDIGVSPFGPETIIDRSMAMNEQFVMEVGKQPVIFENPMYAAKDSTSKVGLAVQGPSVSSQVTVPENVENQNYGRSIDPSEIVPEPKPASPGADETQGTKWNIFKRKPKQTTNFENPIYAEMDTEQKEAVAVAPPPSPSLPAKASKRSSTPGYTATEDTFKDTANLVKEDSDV

B1: I1 NGAL mutant (ligand)
chain: QDSTSDLIPAPPLSSVPLQQNFQDNQFQGKWYVVGLAGNAILREDKDPQKMYATIYELKEDKSYNVTSVLFRDDGCDYWIRTFVPGCQPGEFTLGNIKSYPGLTSYLVRVVSTNYNQHAMVFFKKVSQNQEYFKITLYGRTKELTSELKENFIRFSKSLGLPENHIVFPVPIDQCIDG
Take B1: the “% of i.p. injected NGAL-enterochelin-55Fe3+ complex delivered to mouse urine after 3 hours (escape from renal reabsorption)” value was found to be 6%.

B2: C3 NGAL mutant (ligand)
chain: B1 chain with K50T, R72Q, D73K, D74K, G75K, Q130R, K149Q, K157Q
Take B2: the “% of i.p. injected NGAL-enterochelin-55Fe3+ complex delivered to mouse urine after 3 hours (escape from renal reabsorption)” value worked out at 0.26%.

B3: I5 NGAL mutant (ligand)
chain: B1 chain with K62G
As to B3, the “% of i.p. injected NGAL-enterochelin-55Fe3+ complex delivered to mouse urine after 3 hours (escape from renal reabsorption)” value came to 0.05%.

B4: K5 NGAL mutant (ligand)
chain: B1 chain with K46E, D73K, D74K, G75K, K98Q, H118F, K149Q, H165N
With B4, the “% of i.p. injected NGAL-enterochelin-55Fe3+ complex delivered to mouse urine after 3 hours (escape from renal reabsorption)” value came to 2.9%.

B5: I3 NGAL mutant (ligand)
chain: B1 chain with S15K, K62G, K98Q, Q130R
For B5, the “% of i.p. injected NGAL-enterochelin-55Fe3+ complex delivered to mouse urine after 3 hours (escape from renal reabsorption)” value is 6.9%.

B6: A2 NGAL mutant (ligand)
chain: B1 chain with D73K, D74K, G75K, Q130R, R140Q, K142Q
Regarding B6, the “% of i.p. injected NGAL-enterochelin-55Fe3+ complex delivered to mouse urine after 3 hours (escape from renal reabsorption)” value came to 0.18%.

B7: B4 NGAL mutant (ligand)
chain: B1 chain with S15K, K46E, D73K, D74K, G75K, K98Q, Q130R
As to B7, the “% of i.p. injected NGAL-enterochelin-55Fe3+ complex delivered to mouse urine after 3 hours (escape from renal reabsorption)” value stood at 0.13%.

B8: K2 NGAL mutant (ligand)
chain: B1 chain with K98Q, H118F, K149Q, H165N
Take B8: the “% of i.p. injected NGAL-enterochelin-55Fe3+ complex delivered to mouse urine after 3 hours (escape from renal reabsorption)” value turned out to be 9.3%.

B9: F2 NGAL mutant (ligand)
chain: B1 chain with S15K, K46E, K59Q, D73K, D74K, G75K, Q130R
B9: the “% of i.p. injected NGAL-enterochelin-55Fe3+ complex delivered to mouse urine after 3 hours (escape from renal reabsorption)” value was 0.11%.

B10: K1 NGAL mutant (ligand)
chain: B1 chain with K46E, K59Q, D73K, D74K, G75K, K98Q, H118F, K149Q, H165N
In the case of B10, the “% of i.p. injected NGAL-enterochelin-55Fe3+ complex delivered to mouse urine after 3 hours (escape from renal reabsorption)” value came out at 1.9%.

B11: G3 NGAL mutant (ligand)
chain: B1 chain with S15K, D73K, D74K, G75K, Q130R, K157Q
Take B11: the “% of i.p. injected NGAL-enterochelin-55Fe3+ complex delivered to mouse urine after 3 hours (escape from renal reabsorption)” value came to 0.17%.

B12: H2 NGAL mutant (ligand)
chain: B1 chain with D73K, D74K, G75K, K98Q, H118F, K149Q, H165N
For B12, the “% of i.p. injected NGAL-enterochelin-55Fe3+ complex delivered to mouse urine after 3 hours (escape from renal reabsorption)” value turned out to be 0.27%.

B13: K3 NGAL mutant protein (ligand)
chain: B1 chain with K46E, K98Q, H118F, K149Q, H165N
For the molecule B13, the “% of i.p. injected NGAL-enterochelin-55Fe3+ complex delivered to mouse urine after 3 hours (escape from renal reabsorption)” value was 19.6%.

B14: D1 NGAL mutant (ligand)
chain: B1 chain with S15K, Q130R
Take B14: the “% of i.p. injected NGAL-enterochelin-55Fe3+ complex delivered to mouse urine after 3 hours (escape from renal reabsorption)” value was determined as 0.1%.
